From the supplement of paper PMC10567573 come the findings set out here.

This series is described as follows: protein stability index of a GFP-peptide fusion (GPS, HEK-293T) (PSI 1-6); higher = more stable. The following applies: c terminus: a fixed tail appended.

± gives the standard deviation.
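Also: 24-mer peptide tiles fused after GFP, lentivirally expressed, FACS-sorted into six equal bins by GFP/DsRed ratio, decoded by Illumina sequencing, PSI is the read-weighted mean bin number.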

As for GGAGKGRTPSAFPQTPAAPPATLG [EHMT1], the protein stability index is, setting by setting: (treatment: DMSO) 4.6 ± 0.13; (treatment: MLN4924 1 uM, 8 h) 4.79 ± 0.059.

As to PSIIPQEDPSQQFLQQSLERVYSL [INTS4], the protein stability index is 3.58 ± 0.17 (treatment: DMSO) and 3.58 ± 0.28 (treatment: MLN4924 1 uM, 8 h).

With NLIEKSASLDNGGCALTTFSVLEG [SOAT1], the protein stability index reads like this: (treatment: DMSO) 3.28 ± 0.37; (treatment: MLN4924 1 uM, 8 h) 3.32 ± 0.32.

VDPDNVVLCLLAADEDDDRDVALQ [GADD45A] came in with a protein stability index (treatment: DMSO) of 4.63 ± 0.38 and a protein stability index (treatment: MLN4924 1 uM, 8 h) of 4.77 ± 0.08.

Take PGRPARLDQLLDMPAAGLAVQLRH [SPSB4]: the protein stability index worked out at 3.04 ± 0.36 (treatment: DMSO) and 3.33 ± 0.27 (treatment: MLN4924 1 uM, 8 h).

Turning to ARAEQEEEFISNTLFKKIQALQKE [CCDC6], the protein stability index stood at 3.48 ± 0.41 (treatment: DMSO) and 3.77 ± 0.34 (treatment: MLN4924 1 uM, 8 h).

Regarding VLVNVLQAIYVIDFFWNETWYLKT [DHCR7], the protein stability index worked out at 3.09 ± 0.25 (treatment: DMSO) and 3.22 ± 0.27 (treatment: MLN4924 1 uM, 8 h).

With KLEPMETERSPGPRLQELLGPSPQ [ZNF263], the protein stability index was found to be 4.43 ± 0.14 (treatment: DMSO) and 4.52 ± 0.17 (treatment: MLN4924 1 uM, 8 h).

SKYLLEEWFQNCYARYHQAFADRD [TEKT4] registered a protein stability index (treatment: DMSO) of 2.48 ± 0.24 and a protein stability index (treatment: MLN4924 1 uM, 8 h) of 2.15 ± 0.25.

With SASSIKQILLEWCRSKTLGYQHVD [SMTNL2], the protein stability index is, setting by setting: (treatment: DMSO) 2.22 ± 0.19; (treatment: MLN4924 1 uM, 8 h) 2.42 ± 0.35.

Take ITMMALKVLGELNILPNTQKVTCF [TENT5D]: the protein stability index by setting is: (treatment: DMSO) 2.86 ± 0.59; (treatment: MLN4924 1 uM, 8 h) 2.31 ± 0.75.

On to GEPLALPLDAGEYCVPRGNRRRFR [BEX1], for which the protein stability index reads like this: (treatment: DMSO) 4.8 ± 0.27; (treatment: MLN4924 1 uM, 8 h) 4.99 ± 0.25.

Take LGCNRQSWCLKRYDLEYWAFHDGQ [TRIM14]: the protein stability index amounted to 2.5 ± 0.34 (treatment: DMSO) and 2.34 ± 0.38 (treatment: MLN4924 1 uM, 8 h).

Turning to ALPKATILDLSCNKLTTLPSDFCG [LRRC59], the protein stability index runs as follows: (treatment: DMSO) 2.82 ± 0.16; (treatment: MLN4924 1 uM, 8 h) 3.02 ± 0.28.

The sequence WLMTYVGAVFNGITLLILAELLIF [RTN3] came in with a protein stability index (treatment: DMSO) of 2.49 ± 0.28.

For the sequence VCLEYLKEPVIIECGHNFCKACIT [TRIM39], the protein stability index (treatment: DMSO) was 2.38 ± 0.55 and the protein stability index (treatment: MLN4924 1 uM, 8 h) worked out at 2.28 ± 0.29.

As to PYTPPATSHRRVTDVRGLEEFLSA [PLEKHN1], the protein stability index by setting is: (treatment: DMSO) 3.98 ± 0.19; (treatment: MLN4924 1 uM, 8 h) 3.91 ± 0.35.

On to VGSGGRRDSTARRPRPQGRSVSEP [RTN2], for which the protein stability index by setting is: (treatment: DMSO) 5.09 ± 0.04; (treatment: MLN4924 1 uM, 8 h) 5.19 ± 0.15.

In the case of PQHAADTPKSGEPRVPEEAAQDRP [YJU2B], the protein stability index by setting is: (treatment: DMSO) 5.62 ± 0.26; (treatment: MLN4924 1 uM, 8 h) 5.42 ± 0.26.

As to DPGLWSRLCRLAGASSPAAYDEAL [ZSWIM9], the protein stability index (treatment: DMSO) came to 2.82 ± 0.15 and the protein stability index (treatment: MLN4924 1 uM, 8 h) was 2.78 ± 0.24.

For the sequence LEYLYTDSCCPAGIFQAMCLLICA [RHOBTB3], the protein stability index is 3.08 ± 0.45 (treatment: DMSO) and 3.19 ± 0.55 (treatment: MLN4924 1 uM, 8 h).

For the sequence EFSTSLFSGSLEPVACGSVLSEGS [SRPK2], the protein stability index (treatment: DMSO) is 3.98 ± 0.19 and the protein stability index (treatment: MLN4924 1 uM, 8 h) turned out to be 4.04 ± 0.26.

In the case of TREGFGHSTSLKVPLARSLQISEE [LCOR], the protein stability index reads like this: (treatment: DMSO) 3.39 ± 0.44; (treatment: MLN4924 1 uM, 8 h) 3.82 ± 0.22.

Turning to ELVVIIGWAKHIPGFSTLSLADQM [ESRRG], the protein stability index is, setting by setting: (treatment: DMSO) 3.19 ± 0.31; (treatment: MLN4924 1 uM, 8 h) 2.67 ± 0.77.

Regarding LNILIQSLDWETFEQYCAWQLFLA [INTS3], the protein stability index by setting is: (treatment: DMSO) 3.04 ± 0.92; (treatment: MLN4924 1 uM, 8 h) 2.62 ± 0.12.

As to SLEISPQNVDVNVHPTKHEVHFLH [MLH1], the protein stability index reads like this: (treatment: DMSO) 3.46 ± 0.23; (treatment: MLN4924 1 uM, 8 h) 3.63 ± 0.32.

As to SEEQVSKNLFGPPLESAFDHEDFT [FCHO1], the protein stability index amounted to 5.22 ± 0.4 (treatment: DMSO) and 5.26 ± 0.21 (treatment: MLN4924 1 uM, 8 h).

As to IRSSFISSLSFFLKKMGKRLDYLN [FBXO39], the protein stability index is, setting by setting: (treatment: DMSO) 2.71 ± 0.61; (treatment: MLN4924 1 uM, 8 h) 2.81 ± 0.56.

For YSYRRLGEEALSLQALDPQQCVDK [SLC22A15], the protein stability index turned out to be 4.05 ± 0.45 (treatment: DMSO) and 4.05 ± 0.31 (treatment: MLN4924 1 uM, 8 h).

Consider NKNSTDVKGCSMYVALFPCNECAK [DCTD], for which the protein stability index is, setting by setting: (treatment: DMSO) 2.19 ± 0.37; (treatment: MLN4924 1 uM, 8 h) 2.13 ± 0.14.

As to LESLPTDPLLLILSFLDYRDLINC [FBXO3], the protein stability index is, setting by setting: (treatment: DMSO) 2.84 ± 0.61; (treatment: MLN4924 1 uM, 8 h) 2.85 ± 0.64.

As for RQLMKVVNEMCPNITRIYNIGKSH [CPXM2], the protein stability index is, setting by setting: (treatment: DMSO) 2.26 ± 0.12; (treatment: MLN4924 1 uM, 8 h) 2.71 ± 0.56.

As to PFILPDMVGGNAVPQRTAGGDVPE [MYORG], the protein stability index is, setting by setting: (treatment: DMSO) 4.96 ± 0.24; (treatment: MLN4924 1 uM, 8 h) 5.09 ± 0.2.

As to CRLKRCVDIGMMKEFILTDEEVQR [VDR], the protein stability index by setting is: (treatment: DMSO) 2.49 ± 0.28; (treatment: MLN4924 1 uM, 8 h) 2.53 ± 0.13.

Consider YRQHCTLELGSYIKDLSVVHSDLS [CTDNEP1], for which the protein stability index amounted to 2.4 ± 0.41 (treatment: DMSO) and 2.34 ± 0.25 (treatment: MLN4924 1 uM, 8 h).

On to MESSKPGPVQVVLVQKDQHSFELD [ATL3], for which the protein stability index runs as follows: (treatment: DMSO) 4.35 ± 0.19; (treatment: MLN4924 1 uM, 8 h) 4.04 ± 0.33.

For the sequence IIESFTELARIVLLRHRMNWLGRP [RAB40A], the protein stability index by setting is: (treatment: DMSO) 3.18 ± 0.72; (treatment: MLN4924 1 uM, 8 h) 2.79 ± 0.47.
